Source: publication PMC7459580, “Molecular Basis for Endocrine Disruption by Pesticides Targeting Aromatase and Estrogen Receptor” (International Journal of Environmental Research and Public …, 2020)

Legend:
[1] = tested on: C[C@]12CCC(=O)C=C1CC[C@@H]1[C@@H]2CC[C@]2(C)C(=O)CC[C@@H]12; assay: purified protein; settings: heme; NADPH active site
aromatase (Aro) = molecular target: T1, aromatase (Aro) (Homo sapiens, UniProt P11511); assay: estrone competitive ELISA with purified aromatase and CPR; assay type: biochemical; settings: read-out: % residual activity at 1000 nM
T1 construct: gene CYP19A1; recombinant human aromatase; with human cytochrome P450 reductase (hCPR), electron donor
T1 sequence (P11511 whole entry): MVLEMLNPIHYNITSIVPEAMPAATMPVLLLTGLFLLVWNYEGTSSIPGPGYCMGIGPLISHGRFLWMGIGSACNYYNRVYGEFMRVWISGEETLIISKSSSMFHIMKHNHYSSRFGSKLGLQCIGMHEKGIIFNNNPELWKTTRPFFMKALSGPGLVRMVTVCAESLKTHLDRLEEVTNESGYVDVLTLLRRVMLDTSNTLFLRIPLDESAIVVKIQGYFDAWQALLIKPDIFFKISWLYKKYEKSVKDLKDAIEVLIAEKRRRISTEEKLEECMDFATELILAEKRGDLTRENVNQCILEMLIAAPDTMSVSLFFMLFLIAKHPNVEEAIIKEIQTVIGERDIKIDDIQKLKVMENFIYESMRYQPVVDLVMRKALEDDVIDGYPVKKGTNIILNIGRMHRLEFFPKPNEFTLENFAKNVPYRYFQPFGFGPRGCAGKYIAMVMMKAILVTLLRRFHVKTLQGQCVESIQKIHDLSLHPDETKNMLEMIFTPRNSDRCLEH
T1 sequence (P16435 2-677, further chain): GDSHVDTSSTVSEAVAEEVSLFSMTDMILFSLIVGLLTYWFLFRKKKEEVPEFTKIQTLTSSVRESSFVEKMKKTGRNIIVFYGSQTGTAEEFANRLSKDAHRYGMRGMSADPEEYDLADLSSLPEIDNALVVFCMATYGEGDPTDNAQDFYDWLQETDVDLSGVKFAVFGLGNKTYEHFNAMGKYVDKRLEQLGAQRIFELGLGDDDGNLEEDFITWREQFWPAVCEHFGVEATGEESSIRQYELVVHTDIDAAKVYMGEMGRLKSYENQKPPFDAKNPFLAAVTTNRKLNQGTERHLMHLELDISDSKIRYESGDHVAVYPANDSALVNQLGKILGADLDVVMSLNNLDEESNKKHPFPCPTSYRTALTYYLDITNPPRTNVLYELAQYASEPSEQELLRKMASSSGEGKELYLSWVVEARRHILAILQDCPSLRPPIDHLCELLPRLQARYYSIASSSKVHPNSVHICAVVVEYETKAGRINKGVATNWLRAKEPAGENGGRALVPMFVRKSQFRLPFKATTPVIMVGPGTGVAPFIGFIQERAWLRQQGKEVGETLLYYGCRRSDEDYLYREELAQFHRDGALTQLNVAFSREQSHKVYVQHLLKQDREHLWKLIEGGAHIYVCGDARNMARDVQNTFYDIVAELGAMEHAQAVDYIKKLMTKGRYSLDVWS

Compound	Km [1]	kcat [1]	remaining activity at 1 µM (aromatase (Aro))
aromatase (Aro) (Homo sapiens)	0.0413 ± 0.0082 µM	0.0003 ± 1.67e-05 s⁻¹	–
CC(C)(C#N)c1cc(Cn2cncn2)cc(C(C)(C)C#N)c1 [anastrozole]	–	–	0.7%
